Results: patent US6111089, “Trophinin, trophinin-assisting proteins and methods to inhibit implantation” (The Burnham Institute, dated 2000)

B1: human trophinin (other)
chain: MDIDCLTREELGDDSQAWSRFSFEIEARAQENADASTNVNFSRGASTRAGFSDRASISFNGAPSSSGGFSGGPGITFGVAPSTSASFSNTASISFGGTLSTSSSFSSAASISFGCAHSTSTSFSSEASISFGGMPCTSASFSGGVSSSFSGPLSTSATFSGGASSGFGGTLSTTAGFSGVLSTSTSFGSAPTTSTVFSSALSTSTGFGGILSTSVCFGGSPSSSGSFGGTLSTSICFGGSPCTSTGFGGTLSTSVSFGGSSSTSANFGGTLSTSICFDGSPSTGAGFGGALNTSASFGSVLNTSTGFGGAMSTSADFGGTLSTSVCFGGSPGTSVSFGSALNTNAGYGGAVSTNTDFGGTLSTSVCFGGSPSTSAGFGGALNTNASFGCAVSTSASFSGAVSTSACFSGAPITNPGFGGAFSTSAGFGGALSTAADFGGTPSNSIGFGAAPSTSVSFGGAHGTSLCFGGAPSTSLCFGSASNTNLCFGGPPSTSACFSGATSPSFCDGPSTSTGFSFGNGLSTNAGFGGGLNTSAGFGGGLGTSAGFSGGLSTSSGFDGGLGTSAGFGGGPGTSTGFGGGLGTSAGFSGGLGTSAGFGGGLVTSDGFGGGLGTNASFGSTLGTSAGFSGGLSTSDGFGSRPNASFDRGLSTIIGFGSGSNTSTGFTGEPSTSTGFSSGPSSIVGFSGGPSTGVGFCSGPSTSGFSGGPSTGAGFGGGPNTGAGFGGGPSTSAGFGSGAASLGACGFSYG
B2: biotinylated GST-N-terminal trophinin (other)
chain: {GST}-MDIDCLTREELGDDSQAWSRFSFEIEARAQENADASTNVNFSRGASTRAGFSDRASISFNGAPSSS
modifications: also: labeled with biotin succinamide (site not given here)

How the values were obtained:
biotinylated GST = biotinylated GST (Schistosoma japonicum (Blood fluke), UniProt P08515 = GST, labeled with biotin succinamide); assay: staining of unpermeabilized HT-H, SNG-M and trophinin/tastin-transfected COS-1 cells, avidin-FITC
Procedure: (§1) To identify hydrophilic extracellular domains of human trophinin that mediate cell adhesion, individual domains were expressed and evaluated for specific binding to trophinin expressing cells. The trophinin extracellular domain fusion proteins GST551, GST552 and GST553, the GST-N-terminal trophinin domain (residue 1 to 66) and GST were labeled with biotin succinamide (Sigma). SNG-M, HT-H and COS-1 cells transfected with a mixture of human trophinin and tastin cDNA were grown on coverslips and processed for cell staining with the biotinylated proteins essentially as was described for the antibodies to the external domains of trophinin, except that avidin-FITC (Cappel) was used in place of a FITC-secondary antibody.

human trophinin = target: B1; assay: as above
Procedure: as §1

B1
binding result (biotinylated GST): no binding

B2
binding result (human trophinin): no binding
